From a protein production outcome set (Wang et al. 2014)

Assay: label from the status in PepcDB records

| Sequence | protein production |
| --- | --- |
| MQDKYGVNHDHYCYESSDVLINLLNIRDPDELTQAEADFNLIRYSEYCSDLDELEDFDSNHFLNLHWVLFQDIYEWAGTIRDVDISKANTRFCTCSRVEPELNKAISRIPLIRFCRNKHELVALVADIFSDLNVVHPFREGNGRTTRFFFEELLHVAGYRIEWPVITKEEWVDANIHGYFGQLHKLEVIFDAAIIESLEHHHHHH | failed |
| MGIMELARIDLSRDDLDKRIGGGIPHGSLIIIEGEESTGKSVLCQRLAYGFLQNRYSVTYVSTQLTTLEFIKQMNSLNYSINKKLLSGALLYIPVYPLIADNKKKDGFLKKVMETRAFYEKDVIIFDSISALIANDASEVNVDDLMAFFKRITALKKIIICTVNPKELPESVLTIIRTSATMLIRTELFTFGGDLKNLAKILKYNMAPGSYQKNIVFRVEPKIGIAVEIASVALEHHHHHH | not failed |
| MEDLSDVFDIYAICACCKVAPTSEGTKNEPFSPRTFRGLGNKGTLPWKCNSVDMKYFRSVTTYVDESKYEKLKWKRERYLRMEASQGGGDNTSGGDNNADKLQNVVVMGRSNWESIPKQYKPLPNRINVVLSKTLTKEDVKEKVFIIDSIDDLLLLLKKLKYYKCFIIGGAQVYRECLSRNLIKQIYFTRINGAYPCDVFFPEFDESQFRVTSVSEVYNSKGTTLDFLVYSK | not failed |
| IDFRPYGGFIFDMDGTLIDTMPAHLAAWQATADRFDFPFCQEWLHSLGGMPSFKIVAELNRHYGLSLDPQTVSKFKMETFAAMELQGDVIQCTGIVLEEYLGQKKIAVGTGSQRESAMRLLSHAGLIDRLDAVVTASDVENHKPCPDTFLLAADRLGIDAQNCLVFEDTELGKRAAHSAGMDCVMVEGNNLV | failed |
| MNKGKFALLFTFAACFAVIVFFWLLAVPPENFTADRIVMVLLISPIFAILLAFNLSRFLKQHGYSLRQVHVALEQNIADFIYEFQRLVFIHLMPIAFLGALIFYYGEFTPAIAEFLSLFALIFALSPLLFLGISFFVAMLQVYERVRKKSLLRANFFNFWIWIHLFVILLIIISKVLVQPSELPFQKAYFKALNDGVFNLLIIATMNAIFGVTGRMVAREKFPILLHLSIPLVNSFVAVKILMA | failed |
| MTIKALFWDIGGVLLTNGWDREQRADVAQRFGLDTDDFTERHRLAAPELELGRMTLAEYLEQVVFYQPRDFTPEDFRAVMEEQSQPRPEVLALARDLGQRYRMYSLNNEGRDLNEYRIRTFGLGEFLLAFFTSSALGVMKPNPAMYRLGLTLAQVRPEEAVMVDDRLQNVQAARAVGMHAVQCVDAAQLREELAALGVR | not failed |
| MSKKKSAAMTLKDFHGGSIPSDLPLPSAPGVTPKVIPDRPVFDRAPWGNSIGRPDQRARPSSSHAIRNLDDKSLFLPHNVNIGRNFSEDERKPLDGHSAPRRVVSDDVFRFANNRLEMKADSVLAGRHSGWAAGPLTHSGTGNIENSVSGNHSNIWNGRKEVSVANNEPGQSPWTKQPAVSNLVHTSALDQVSSGGWQSKLLVPSQMGFDVVKHSEIDTRVYKTNSPVISQGVEPHGTHVERALIAEDGIQRGKKLSREYEKIPGPTYVDAKEAKIVANTNDKPHPKYSDVKPAGHLVQPTAPSEVVERPKLNLLPRTKPLESVEKPVNDEKLENSASVLIQRENATQKSFNNSKSGLSTDEIPNQPAERPKLNLKPVAQLLEQPEVKTEKDRSAVFGGARPRELVLKERGIDEPEHHKLDQPTDRMVLKPIERVPEHASQRPVSSPRDMRTRKFDQKDGRNVSDIARSETQRRNWRENENKSARQQQQTQEKTRHPSPETWRKPVPQKLDSPNGTGIRHGKAASALELAQAYSPFSDPKSGIGSSNSFNKSRNNQTQQQPFSRLVGSTTTGRQINGY | failed |
| MSAPHDSHTLINVLTLNAHMGFDLLKRRFILAALREAIREVCAEIVCLQEVLGEHALHARRHAQWPAVAHYEYLAEMLWPQFSYGRNAVYPHGHHGNAVLSKFPISSFANHDVSVPGHEPRGVLHAVLQVPGWSEELQVFCVHLGLHEAHRQQQIGLLCARVAALSADAPVVVAGDFNDWRARGHPLLTRCGLVEAVECMHGRVARSFPSRFPVLPLDRIYLRNLRVVQARVLSGLPWSRLSDHLPLLASIAP | failed |
| MYLLNDKVAHELKKPFGKVYKELPSIEGKVVSIGDVTTKHLLSNGIIPDLSILDFKTKRNIPVDIPHKFKTIFEVENPQGCISDEAIERIKYLSTIHDRDMALIIKGEEDLLTIPVIKYFPEDTSVIYGQPDEGMVLLKITDELKQKIEKLLKEMEER | failed |
| VDEPESMVNLAFVKNDSYEKGPDSVVVHVYVKEICRDTSRVLFREQDFTLIFQTRDGNFLRLHPGCGPHTTFRWQVKLRNLIEPEQCTFCFTASRIDICLRKRQSQRWGGLEAPAARVGGA | not failed |
| MKPSCRPGAALEADRCPSFPDRSAATPHRGLAWAMAVVLIGGCATTRDIEQLQTTSQREPTNAQLKLKYMDERDRQVKDLLDGADRLRLIHDFDRAQVLLLQALRLDPGNERGRRIAAAIDVDRRNGAVLQEAERMMARGSYDGAAERVERVLAETPNDAGALRLYREISEKRRLQKQAAEEKNAAASIMRKPVSLQFRDANVRMVFEALSRTTGLSVIFDRDVRVDLKTTIFVSNASLEDTVDMILLQNQLAKKVLNANTVFIYPATPAKQQEYQDLKVRTFQLSNTDAKHIDTLLKNLLKIKEIVTDERANTVSIRATPETIRVAERMIAAQDLPEPEVMLEVEVLEVSRDRLTDLGIDWPNSFSLGTPSSASTWGALHHLTVNQLTASGLSVTANLKLTDTDANLLASPRIRTRNKEKAKILIGDKVPVISSSSVPSTSGPVYSQSIQYLDVGIKLEVEPQVYRDNDVGIKMSLEVSNITQIISSSNAQTGLSSLAYQIGTRNASTTLRLKDGETQILGGLIQDEDRDAANKVPGLGQLPVLGRLFSNHNGDHKKTEIVLQITPHIVRPQLAADADTREIWSGTDSTVRTEQLRLDPPGVAAPATPAAPAAPAAALPAPAAGVAVVSPGAVGGGTTGGEQTPKAAAPAAAGGVVPPNGAFGQPPAAPRTTPPPAMFGGRFMTTVPPPEGVVPPAPPAPAAAPAAVAAPAAAAPAAPAAGTAGPEAAAAVSPTEAAPPAPAPAAPYTPAPAAPAAAPPAASPPPIVPTPPSDMPSDNPLHPIPTGAY | failed |
| MVWWWRALGPSGEGQPGPLPSSLFPVIDPSRPTMQDIECLGVYTSGGDAPGMNACLRAVVRTAIANDIAVMGIRRGYEGMIEADFVEMERRSVSNILQSGGTILKSARSEAFRTEEGRRAAANSLRENGIDALVAIGGDGTFRGASKLYDEHGLGVVGCPGTIDNDLYGTDQTIGYDTALNTAIDNIDRIRDTADAHNRLFLVEVMGRDAGFIALNSGIGGGAELILIPETITEMDMVKERILSLMTAQRRSTIVVVAEGDELGGAQGIERALRDDAAFSDIELRSTILGHTQRGGAPTASDRVLASRLGVAAVESLMDGHSDVMVGMTNNEIKLTPLRNVYGRRKSIDYDLLKLTQILS | failed |
| MKLSNKTQALHDLIAPAVQACDVNLWGIEFIPQGKRSLLRIFIDKPVDETAEPVLNEDGETELGRGIGVQDCVRVTQQVGAILDVHDPISGEYALEVSSPGWDRPFFQLEQMSAYIGQQVALRLISAVENRRKFQAKLLLVDLENEMIQVEVDGKHVLEIDSHNIDKANLIYQD | failed |
| MQITAAAQHDYQQAIAAYQAGEFEAAIAQLDRLLGDVPDWAAALGLQGLCYYCCDQRETGITLLRRAIALDPTDPTHFNNLGNLLQRQGHLTEALERLTQALAIDPTHVAARFNRAITLQKLGDPATALQDYQQLLEADPDNPEIRYNSAHAALAIGDWDFGLPAYEARCQQLQHFPEIEASLKLPRWQGQDLDQQTLLVWGEQGFGDRLMGARWIPLLRQRYPQARIVWQTSPSLVRLFQTLADDRLMVLAEGAELPVCDWQVPLLSLMLIFQSDRNRLPWHGPYFFPHKGDFLPASDRPRLGLVWSAGRNPAQSAEFAANKSCPLALLWSVLSVSGWDVVSLQVDEARQDLQTLSDPLLDLGSEIGDFQDTVDRLAHLDLLITVDTAIAHLGGMIGLPTWVLLPAVPDWRWELSGATTPWYPSLRLFRQPSPGDWSGAIAELQTALAEFQPAPQHWDYRGELSIADWIQAADRAFTAQNWPRAEWLIRQAVAIAPEEPSFHRALGRSLKQQGDYAGAAQALAIACELAPTQAEFWHERSSLEYYDNQLTAALNSLNQAIALQGATADHLISRGVLHYRLGQFPESCADYDAAAAIAPESPLLRCNRGFLQLHWGNWLQGWPDLEVRFDFQSDLDPFQYRQLAPAWQGEPLGQQTLLIWGEQGLGDHLLFCRWLPELRLQHPQAQLIFVTDPLLERLMQQLADDRLQICCLDEPVPACDRQVALMSLPAIAQTTPATVPWRGAYFQSSMPPLRCAETLQVGFVWASGKRSSPETARLYREKSCPLNELLPALLAVPAVDYYSFQVGADVAELQPWLEQSDRLFDLSEQLQDFQDTADWLAEMDVLISVDTAVANLAGMMALPVWTLLPEPANWRWGLTGHTTPWYPSMRLYRQTQRGNWSGAIAQIQQDLQQLSRDRDCLVT | failed |
| MEIGIIGTGNIGGTLARKLIAAGHQVRVANSKGIHGVQSFADEIGATAVDVYGAVKGADAIILSIPLPALASLPNGFFDDLPETVPLIDTSNYYPGLRDPLIPEIDDGMTESVWVSQQLSHPVIKAFNNILAWSLAELGTPKGSASRLAIAVAGDNATLKQIVMNLVDDTGFDAIDAGSLEESWRQQPSTPAYCCDYDAETMKKGLTAAVRGEAASKRDRLPLEHHHHHH | failed |
| MGGPAYDCLTNPLGAVRFSFVNALSSGYDPASSVGKDWGVVDLFRHYFSDESAISQVPILDSSSIKWVQPKTLVRFRGMIQDMLGNEFYAGAYKDDSTWRTNKYSDVSQFPEGSSTEIQVWERRLLYCVPVPGKNQWTECSSQELKNRFLDLTGQNREKRVRVDEEMTDSMDSSKVGEATSSASESQVPQTSGIPPATSADSLPCLVKIYDSPESDLKLNDVVEFLGVLTFDPIVMMDTDTLDENSDALSEAESVQMPSGKQPKSPQIFKEIRESLMKYLTGLLGNDHIAAQFLLLHLLSKVHGRVDNVAVGKLSLNLIHLNKESMSIFGTQLSGALKSLLPFTQSIPLTIEYLNTASFGPKKDYGINRLMPGVLQIADGTHLILDETELQPGTLNSVGVENANLLKNLLECQKVEYDFQYYKMEMATDVQMLIFSEGKSNIMPADLVLPLQPSQVNSLEVITPETAETWRCYLATCKSLSHSIGQELQQVVENDLVAARQTDRSLGSQDLSRLLTMARMMSVSYGETTLSLEHWQMVLELERLRKERLK | failed |
| MLTKFKSLPKAVYAILALSFLLHVFCLVKQPGLDGELVKVTYGANDAFNYSLTAEQLLKHGVFGYVYLEPSEVPGKNAYITPGQPLLLAGAMIISDITSIPYYYVATVINMIMNLCTVLLVFLIGKELFEKNIYGIVASILYAIYPSNYTYFRTLLTEVPSIFLLALCVYVFVLAWKYNKVKFHIWFGIVVSILLMFRPNPAPMMLIPVLVVLFTYGFKDSIRIGLLWFIGPFFIIGAWVVRNYLALNQFILFSTQGADPLIAGADPFNKIGYENIVNEMRAKGLDDKGAYAKELIKNGFKTDFTYWFSWFTVGKTIELFKTAPAVDQYRIHNFMQLCHRVFIIGTFLSSFCFMLNSFKHKRVMMLVASSIIYIIFSNLFLAINRYGFFINPLMCLILAYGLIHIVQKLPFFRTNQA | failed |
| MTKCGHSFCYKCIHQSLEDNNRCPKCNYVVDNIDHLYPNFLVNELILKQKQRFEEKRFKLDHSVSSTNGHRWQIFQDWLGTDQDNLDLANVNLMLELLVQKKKQLEAESHAAQLQILMEFLKVARRNKREEMSGLYSPVSEDSTVPQFEAPSPSHSSIIDSTEYSQPPGFSGSSQTKKQPWYNSTLASRRKRLTAHFEDLEQCYFSTRMSRISDDSRTASQLDEFQECLSKFTRYNSVRPLATLSYASDLYNGSSIVSSIEFDRDCDYFAIAGVTKKIKVYEYDTVIQDAVDIHYPENEMTCNSKISCISWSSYHKNLLASSDYEGTVILWDGFTGQRSKVYQEHEKRCWSVDFNLMDPKLLASGSDDAKVKLWSTNLDNSVASIEAKANVCCVKFSPSSRYHLAFGCADHCVHYYDLRNTKQPIMVFKGHRKAVSYAKFVSGEEIVSASTDSQLKLWNVGKPYCLRSFKGHINEKNFVGLASNGDYIACGSENNSLYLYYKGLSKTLLTFKFDTVKSVLDKDRKEDDTNEFVSAVCWRALPDGESNVLIAANSQGTIKVLELV | failed |
